Test results published in article PMC6376064.

Target: Nrf2 (UniProt Q60795)
Assay: anti-Flag (Nrf2) co-IP, immunoblot
Details: reference: Keap1 wild type; sites T51,S53,T55,T80

binding against the reference: stronger
Substance: Keap1 (from UniProt Q9Z2X8) Keap1 4A
